Results taken from paper PMC9475539 (The EMBO Journal, 2022).
Changes are numbered by the printed parent chain. Numbers in names are those of the source.

Key:
[1] = target: the molecule itself; assay: cryo-EM 2D class averages
cryo-EM structure = target: the molecule itself; assay: cryo-EM structure
SEC + native gel or EMSA = target: the molecule itself; assay: SEC + native gel or EMSA
native gel or EMSA = target: the molecule itself; assay: native gel or EMSA

B1: YhhT from Escherichia coli (natural protein, E. coli K-12, UniProt P0AGM0 1-349, looked up)
chain: METPQPDKTGMHILLKLASLVVILAGIHAAADIIVQLLLALFFAIVLNPLVTWFIRRGVQRPVAITIVVVVMLIALTALVGVLAASFNEFISMLPKFNKELTRKLFKLQEMLPFLNLHMSPERMLQRMDSEKVVTFTTALMTGLSGAMASVLLLVMTVVFMLFEVRHVPYKMRFALNNPQIHIAGLHRALKGVSHYLALKTLLSLWTGVIVWLGLELMGVQFALMWAVLAFLLNYVPNIGAVISAVPPMIQVLLFNGVYECILVGALFLVVHMVIGNILEPRMMGHRLGMSTMVVFLSLLIWGWLLGPVGMLLSVPLTSVCKIWMETTKGGSKLAILLGPGRPKSRLPG
stoichiometry N [1]: 5

B2: TqsA (transporter of quorum-sensing signal AI-2) from Escherichia coli (natural protein, E. coli K-12, UniProt P0AFS5 1-344, looked up)
chain: MAKPIITLNGLKIVIMLGMLVIILCGIRFAAEIIVPFILALFIAVILNPLVQHMVRWRVPRVLAVSILMTIIVMAMVLLLAYLGSALNELTRTLPQYRNSIMTPLQALEPLLQRVGIDVSVDQLAHYIDPNAAMTLLTNLLTQLSNAMSSIFLLLLTVLFMLLEVPQLPGKFQQMMARPVEGMAAIQRAIDSVSHYLVLKTAISIITGLVAWAMLAALDVRFAFVWGLLAFALNYIPNIGSVLAAIPPIAQVLVFNGFYEALLVLAGYLLINLVFGNILEPRIMGRGLGLSTLVVFLSLIFWGWLLGPVGMLLSVPLTIIVKIALEQTAGGQSIAVLLSDLNKE
stoichiometry N (cryo-EM structure): 5

B3: TqsA K200L (natural protein, E. coli K-12, UniProt P0AFS5 1-344, looked up)
chain: B2 chain with K200L
stoichiometry N (SEC + native gel or EMSA): 5

B4: TqsA N234L (natural protein, E. coli K-12, UniProt P0AFS5 1-344, looked up)
chain: B2 chain with N234L
stoichiometry N (SEC + native gel or EMSA): 5

B5: TqsA E164Q (natural protein, E. coli K-12, UniProt P0AFS5 1-344, looked up)
chain: B2 chain with E164Q
stoichiometry N (SEC + native gel or EMSA): 5

B6: TqsA P237A (natural protein, E. coli K-12, UniProt P0AFS5 1-344, looked up)
chain: B2 chain with P237A
stoichiometry N (SEC + native gel or EMSA): 5

B7: TqsA E280Q (natural protein, E. coli K-12, UniProt P0AFS5 1-344, looked up)
chain: B2 chain with E280Q
stoichiometry N (SEC + native gel or EMSA): 5

B8: TqsA N238L (natural protein, E. coli K-12, UniProt P0AFS5 1-344, looked up)
chain: B2 chain with N238L
stoichiometry N (SEC + native gel or EMSA): 5

B9: TqsA R61L (natural protein, E. coli K-12, UniProt P0AFS5 1-344, looked up)
chain: B2 chain with R61L
stoichiometry N (SEC + native gel or EMSA): 5

B10: YdiK from Escherichia coli (natural protein, E. coli K-12, UniProt P0AFS7 1-370, looked up)
chain: MVNVRQPRDVAQILLSVLFLAIMIVACLWIVQPFILGFAWAGTVVIATWPVLLRLQKIMFGRRSLAVLVMTLLLVMVFIIPIALLVNSIVDGSGPLIKAISSGDMTLPDLAWLNTIPVIGAKLYAGWHNLLDMGGTAIMAKVRPYIGTTTTWFVGQAAHIGRFMVHCALMLLFSALLYWRGEQVAQGIRHFATRLAGVRGDAAVLLAAQAIRAVALGVVVTALVQAVLGGIGLAVSGVPYATLLTVLMILSCLVQLGPLPVLIPAIIWLYWTGDTTWGTVLLVWSGVVGTLDNVIRPMLIRMGADLPLILILSGVIGGLIAFGMIGLFIGPVLLAVSWRLFAAWVEEVPPPTDQPEEILEELGEIEKPNK
stoichiometry N (cryo-EM structure): 5

B11: PerM from Escherichia coli (natural protein, E. coli K-12, UniProt P0AFI9 1-353, looked up)
chain: MLEMLMQWYRRRFSDPEAIALLVILVAGFGIIFFFSGLLAPLLVAIVLAYLLEWPTVRLQSIGCSRRWATSIVLVVFVGILLLMAFVVLPIAWQQGIYLIRDMPGMLNKLSDFAATLPRRYPALMDAGIIDAMAENMRSRMLTMGDSVVKISLASLVGLLTIAVYLVLVPLMVFFLLKDKEQMLNAVRRVLPRNRGLAGQVWKEMNQQITNYIRGKVLEMIVVGIATWLGFLLFGLNYSLLLAVLVGFSVLIPYIGAFVVTIPVVGVALFQFGAGTEFWSCFAVYLIIQALDGNLLVPVLFSEAVNLHPLVIILSVVIFGGLWGFWGVFFAIPLATLIKAVIHAWPDGQIAQE
stoichiometry N (native gel or EMSA): 2
